Values quoted from earlier work in article doi:10.1101/2024.03.27.586990.

Target: Asp27 (UniProt position 27, WNLPADLAWFK)
Details: unbound state (no inhibitor), as described by this article

## Dihydrofolate reductase (DHFR) (Escherichia coli)
  pKa: 6.5
